# Source: article PMC7324161, “Synergy between SIRT1 and SIRT6 helps recognize DNA breaks and potentiates the DNA damage response and repair in humans and mice” (eLife, 2020)
# Where no end group is shown, it is not given here. [ ]: non-standard residue; d: D form. The star is where a group is joined. Biotin = O=C1N[C@H]2[C@H](CS[C@H]2CCCCC(=O)*)N1; pS = N[C@@H](COP(=O)(O)O)C(=O)O
# What was measured:
# [1] = system: GST-SIRT6 K33R (human); test: fluorescence polarization; conditions: Pull-down: 10 mM Tris-Cl pH 7.5, 100 mM NaCl, 0.01% NP40, 10% glycerol, 4 C overnight, 10 pmol DNA and 0.5 ug protein in 300 ul; FP buffer not in material
# [2] = system: GST-SIRT6 WT (human); test: fluorescence polarization; conditions: 20 nM FAM-DNA; Pull-down: 10 mM Tris-Cl pH 7.5, 100 mM NaCl, 0.01% NP40, 10% glycerol, 4 C overnight, 10 pmol DNA and 0.5 ug protein in 300 ul; FP buffer not in material
# [3] = molecular target: T1, GST-SIRT6 K33R (human, UniProt Q8N6T7 1-355, K33R); test: pull-down; 1 μg biotinylated peptide with 1 μg GST-SIRT6 in 50 mM Tris-HCl, 200 mM NaCl, 0.05% NP40 overnight at 4°C; Streptavidin Sepharose beads 1 hr at 4°C; western blot; conditions: both partners purified
# T1 construct: SIRT6, human, lysine 33 to arginine, as GST fusion
# T1 sequence (Q8N6T7 whole entry K33R, the tested form may be a part): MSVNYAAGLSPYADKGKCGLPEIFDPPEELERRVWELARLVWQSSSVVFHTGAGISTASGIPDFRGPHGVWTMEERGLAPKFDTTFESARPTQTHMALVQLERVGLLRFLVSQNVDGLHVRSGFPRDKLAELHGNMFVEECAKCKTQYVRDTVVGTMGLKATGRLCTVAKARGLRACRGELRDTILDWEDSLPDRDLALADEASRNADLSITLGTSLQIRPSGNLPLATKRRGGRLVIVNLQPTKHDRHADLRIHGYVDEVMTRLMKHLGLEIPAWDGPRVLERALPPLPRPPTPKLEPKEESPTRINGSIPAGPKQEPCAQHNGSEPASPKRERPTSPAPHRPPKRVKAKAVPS
binding result [3],Molecule,Kd [1] [nM],Kd [2] [nM]
,FAM-labeled DNA duplex,105,166
binds,"Biotin-GKKATQA[pS]QEY (C terminus of H2AX, printed as BGKKATQApSQEY; also called biotin-γH2AXp; source: synthetic peptide (GL Biochem, Shanghai)) [biotin-labeled C-terminal γH2AX peptide]",,
